The record followed here is the supplement of paper PMC5998384.

The test system of series [1] is HeLa Kyoto. The series is described as follows: solubility in G1/S (NP-40 vs SDS abundance) (log2 ratio); higher = more soluble. The conditions noted are these: cell cycle stage: G1/S.
The test system of series [2] is HeLa Kyoto. The series is described as follows: solubility change mitosis vs G1/S (difference of NP-40 vs SDS log2 ratios) (log2 ratio difference); higher = more soluble in mitosis.
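Wherever solubility change mitosis vs G1/S (difference of NP-40 vs SDS log2 ratios) is given: synchronized HeLa Kyoto cells (double thymidine block for G1/S, nocodazole release for mitosis), protein amounts in NP-40 versus SDS lysates quantified by mass spectrometry, three biological replicates.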
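Wherever solubility in G1/S (NP-40 vs SDS abundance) is given: HeLa Kyoto cells arrested at G1/S by double thymidine block, proteins quantified by TMT10plex mass spectrometry in mild NP-40 versus SDS extracts, three biological replicates.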

Regarding “MGVQGFQEFLEKRCPGAVVPVDLLKLARTVSRQQQQQHLHRQLPPTAALAPGAPRAARGSVPLQPPLPPAALGAYSGGAGPTRHHHPAHHFHHHGQAQPGLHPPLPPPPPPQLPGARVLVDAGSALPRLYGGYQTDWVCGGQWNAMLGYLSALCQACAYPGGDGLELVVMFPGGLGKDRLAEWGRRCQAERQTAQLIVGHVGNKGTPPPRAWFLPPACLSHCVRLALIRFRVKVFQSLEDHHLEVVAFFRENGFHGLLAHDSEYALYNIPSYYSSHALKLSWNGKNLTTNQFLMQEVAKQLGLKRMNFPIFAALLGNHILPDEDLAAFHWSLLGPEHPLASLKVRAHQLVLPPCDVVIKAVSEYVSSIKDPSNLDVVGKDVFKQSQSRTEDKIERFKKAVEYYSVTTKLSSLPVGPSFLGFRNNRLGNPPLPRNQVGTISAGKPMFSHQVPQKVKYPPPFPVGPNSSLLFSSHALGESHAFSEDPMLQNSPFANWAVSYDSSASQFPNYLPSKASPPLGPDSSHSSSSDGDEPNGASSDHITEAFHHQPEWGNPNRDRGSWAQPVDTGVSEASLGDGEPHIPSLLSMSTRNHMDITIPPLPPVAPEVLRVAEHRHRRGLMYPYIYHVLTKGEIKIPVCIEDECNMELPPAALLFRSARQYVYGVLFSLAETQRKMERLAMRRRLPVEVPSVILKEWSAYKGKSPQTPELVSALTFREWTCPNLKKLWLGKAVEDKNRRMRAFLACMKSDTPSMLNPANVPTHLLLMCCVLRYMVQWPGGRILHRHELDTFLAQAVSTQLYEPDRLQELKIEKLDARGIQLAALFMSGVDTALFANDACGQPVPWEHCCPWIYFDGKLFQSKLIKAGRERVSLVELCDGQADLATKVEKMRQSILEGVNMNHPPPSALLPSPTFVPPMVPSLYPVSLYSRAMGSMPLPPQGRSRGFAGLHPIPPQGGKLEIAGMVVGQWAGSRSSRGRGSFGMQVVSVGGPGKGHGKEQTGRGSKGHKKGNKQGSSDGVSKSLELHQGRSRSQVNGNSGALIKEEKSDHRLPAPSQCALSRDSNECNNGNRYLPMNNREKNHLQEQKLETVAQRKED [FAM120C]”, the “solubility in G1/S (log2)” value in series [1] worked out at 0.0177. The “solubility change mitosis (log2)” value in series [2] was -0.0292.

Consider “MGVSKLDILYRRLLLTKLFIRGWGRPEDLKRLFEFRKMIGNRERCQNLVSSDYPVHIDKIEEQSDCKILDGHFVSPMAHYVPDIMPIESVIARFQFIVPKEWNSKYRPVCIHLAGTGDHHYWRRRTLMARPMIKEARMASLLLENPYYGCRKPKDQVRSSLKNVSDLFVMGGALVLESAALLHWLEREGYGPLGMTGISMGGHMASLAVSNWPKPMPLIPCLSWSTASGVFTTTDSFKMGQEFVKHFTSSADKLTNLNLVSRTLNLDISNQVVSQKPADCHNSSKTSVSATSEGLLLQDTSKMKRFNQTLSTNKSGYTSRNPQSYHLLSKEQSRNSLRKESLIFMKGVMDECTHVANFSVPVDPSLIIVVQAKEDAYIPRTGVRSLQEIWPGCEIRYLEGGHISAYLFKQGLFR [ABHD18]”, for which the “solubility in G1/S (log2)” value in series [1] was -0.33. The “solubility change mitosis (log2)” value in series [2] is -0.181.

Regarding “MHARGPHGQLSPALPLASSVLMLLMSTLWLVGAGPGLVLAPELLLDPWQVHRLLTHALGHTALPGLLLSLLLLPTVGWQQECHLGTLRFLHASALLALASGLLAVLLAGLGLSSAAGSCGYMPVHLAMLAGEGHRPRRPRGALPPWLSPWLLLALTPLLSSEPPFLQLLCGLLAGLAYAAGAFRWLEPSERRLQVLQEGVLCRTLAGCWPLRLLATPGSLAELPVTHPAGVRPPIPGPPYVASPDLWSHWEDSALPPPSLRPVQPTWEGSSEAGLDWAGASFSPGTPMWAALDEQMLQEGIQASLLDGPAQEPQSAPWLSKSSVSSLRLQQLERMGFPTEQAVVALAATGRVEGAVSLLVGGQVGTETLVTHGKGGPAHSEGPGPP [RHBDD3]”, in series [1], the “solubility in G1/S (log2)” value was -0.0767. Further, the “solubility change mitosis (log2)” value in series [2] was determined as 0.0168.

As to “MHSSNPKVRSSPSGNTQSSPKSKQEVMVRPPTVMSPSGNPQLDSKFSNQGKQGGSASQSQPSPCDSKSGGHTPKALPGPGGSMGLKNGAGNGAKGKGKRERSISADSFDQRDPGTPNDDSDIKECNSADHIKSQDSQHTPHSMTPSNATAPRSSTPSHGQTTATEPTPAQKTPAKVVYVFSTEMANKAAEAVLKGQVETIVSFHIQNISNNKTERSTAPLNTQISALRNDPKPLPQQPPAPANQDQNSSQNTRLQPTPPIPAPAPKPAAPPRPLDRESPGVENKLIPSVGSPASSTPLPPDGTGPNSTPNNRAVTPVSQGSNSSSADPKAPPPPPVSSGEPPTLGENPDGLSQEQLEHRERSLQTLRDIQRMLFPDEKEFTGAQSGGPQQNPGVLDGPQKKPEGPIQAMMAQSQSLGKGPGPRTDVGAPFGPQGHRDVPFSPDEMVPPSMNSQSGTIGPDHLDHMTPEQIAWLKLQQEFYEEKRRKQEQVVVQQCSLQDMMVHQHGPRGVVRGPPPPYQMTPSEGWAPGGTEPFSDGINMPHSLPPRGMAPHPNMPGSQMRLPGFAGMINSEMEGPNVPNPASRPGLSGVSWPDDVPKIPDGRNFPPGQGIFSGPGRGERFPNPQGLSEEMFQQQLAEKQLGLPPGMAMEGIRPSMEMNRMIPGSQRHMEPGNNPIFPRIPVEGPLSPSRGDFPKGIPPQMGPGRELEFGMVPSGMKGDVNLNVNMGSNSQMIPQKMREAGAGPEEMLKLRPGGSDMLPAQQKMVPLPFGEHPQQEYGMGPRPFLPMSQGPGSNSGLRNLREPIGPDQRTNSRLSHMPPLPLNPSSNPTSLNTAPPVQRGLGRKPLDISVAGSQVHSPGINPLKSPTMHQVQSPMLGSPSGNLKSPQTPSQLAGMLAGPAAAASIKSPPVLGSAAASPVHLKSPSLPAPSPGWTSSPKPPLQSPGIPPNHKAPLTMASPAMLGNVESGGPPPPTASQPASVNIPGSLPSSTPYTMPPEPTLSQNPLSIMMSRMSKFAMPSSTPLYHDAIKTVASSDDDSPPARSPNLPSMNNMPGMGINTQNPRISGPNPVVPMPTLSPMGMTQPLSHSNQMPSPNAVGPNIPPHGVPMGPGLMSHNPIMGHGSQEPPMVPQGRMGFPQGFPPVQSPPQQVPFPHNGPSGGQGSFPGGMGFPGEGPLGRPSNLPQSSADAALCKPGGPGGPDSFTVLGNSMPSVFTDPDLQEVIRPGATGIPEFDLSRIIPSEKPSQTLQYFPRGEVPGRKQPQGPGPGFSHMQGMMGEQAPRMGLALPGMGGPGPVGTPDIPLGTAPSMPGHNPMRPPAFLQQGMMGPHHRMMSPAQSTMPGQPTLMSNPAAAVGMIPGKDRGPAGLYTHPGPVGSPGMMMSMQGMMGPQQNIMIPPQMRPRGMAADVGMGGFSQGPGNPGNMMF [BCL9]”, in series [1], the “solubility in G1/S (log2)” value was 0.308. The “solubility change mitosis (log2)” value in series [2] was determined as 0.0803.
